From paper PMC3749969

What was measured:
[1] = biological target: Merkel cell polyomavirus major capsid protein VP1 (pseudovirions, codon-modified gene) (Merkel cell polyomavirus (MCV)); assay: co-sedimentation; purified native virions and high-VP2 pseudovirions; SDS-PAGE, SYPRO Ruby stain, densitometry against BSA standards; apparent ratio
[2] = biological target: Merkel cell polyomavirus major capsid protein VP1 (native virions, isolate R17b) (Merkel cell polyomavirus (MCV), isolate R17b); assay: as above

**Q.** With “Merkel cell polyomavirus minor capsid protein VP2 (pseudovirions, codon-modified gene) (natural protein)” as the substance, how does the stoichiometry N (VP2 per 5 VP1) [1] read?
**A.** 1.4

**Q.** With “Merkel cell polyomavirus minor capsid protein VP2 (native virions, isolate R17b) (natural protein)” as the substance, how does the stoichiometry N (VP2 per 5 VP1) [2] read?
**A.** 2
